From PMC12631472, “Low-Cost Label-Free Electrochemical Aptasensor for Dual Detection of Dengue and Zika Using Fluorine-Doped Tin Oxide Modified with APTES and Gold Nanoparticles”

Biological target: Dengue NS1 (NS1-D) (Dengue virus serotype 4, UniProt P09866 775-1126)
Assay: electrochemical impedance spectroscopy; PBS; 1000 ng/mL NS1-D; dRct 114.1 ± 0.2%; LoD 0.21 ng/mL; PBS or commercial human serum; aptamer immobilized at 4 °C in 0.8 M PB, 1.0 M NaCl, 5 mM MgCl2, 1 mM EDTA, pH 7; aptamer:total thiol 1:250; assay temperature not stated
Conditions: protein: commercial; chain copies: 2

Dengue NS1 (NS1-D), sequence (P09866 775-1126): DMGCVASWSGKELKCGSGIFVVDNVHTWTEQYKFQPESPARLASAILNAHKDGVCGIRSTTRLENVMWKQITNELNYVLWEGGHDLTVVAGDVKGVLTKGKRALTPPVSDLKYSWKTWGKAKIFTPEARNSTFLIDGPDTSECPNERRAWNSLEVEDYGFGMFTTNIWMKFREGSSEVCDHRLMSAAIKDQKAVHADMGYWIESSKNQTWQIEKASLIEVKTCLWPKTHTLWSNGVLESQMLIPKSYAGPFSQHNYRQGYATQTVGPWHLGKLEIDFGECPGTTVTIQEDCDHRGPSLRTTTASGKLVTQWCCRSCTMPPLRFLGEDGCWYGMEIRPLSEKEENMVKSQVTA

TTTTAGCGGATCCGATGGGTGGGGGGGTGGGTAGGATCCGCG (structured_DNA, 5'-HS-(CH2)6 thiol) [NS1 DNA aptamer]
binding result: binds
